Measured values as given in patent US9605283B2, “Microorganism modified for the production of 1,3-propanediol” (INSTITUT NATIONAL DES SCIENCES APPLIQUÉES, priority 2012, dated 2017).

Key:
[1] = substrate: O=C(O)C(=O)CCO; experiment: OHB decarboxylase / pyruvate decarboxylase kinetics, Zm-Pdc W392L; format: biochemical, Zymomonas mobilis; details: other: 37° C., pH 7, coupled to E. coli YqhD/NADPH
Protocol: (§1) OHB decarboxylase activity was assayed by coupling the decarboxylase activity to the NADPH-dependent reduction of the released 3-hydroxypropanal by purified aldehyde reductase, YqhD, from E. coli. The decarboxylation of pyruvate was coupled to the NADH-dependent reduction of acetaldehyde catalysed by yeast alcohol dehydrogenase. Branched-chain alpha-ketoacid decarboxylase activity was measured on 4-methyl-2-oxovaleric acid by coupling to the NADH-dependent reduction of 3-methylbutanal catalysed by horse liver alcohol dehydrogenase. […] Reactions were started by adding 20 mM 2-oxo-4-hydroxybutyrate (OHB), 10 mM 4-methyl-2-oxovaleric acid (MOV), or 5 mM pyruvate.
(§2) Site-directed mutagenesis of the L. lactis kdcA and the Z. mobilis Pdc genes was carried out using the oligonucleotide pairs listed in Table 9 and the pET28-Ll-kdcA and pET28-Zm-Pdc plasmids, respectively, as the template.
(§3) Mutant enzymes were expressed, purified and tested for OHB decarboxylase, pyruvate decarboxylase and MOV decarboxylase activity as described in Example 4.

[2] = substrate: CC(=O)C(=O)O; experiment: OHB decarboxylase / pyruvate decarboxylase kinetics, Zm-Pdc W392Q; format: biochemical, Zymomonas mobilis; details: other: 37° C., pH 7, coupled to yeast alcohol dehydrogenase/NADH
Protocol: as §1, §2, §3

[3] = substrate: O=C(O)C(=O)CCO; experiment: as above; format: biochemical, Zymomonas mobilis; details: other: 37° C., pH 7, coupled to E. coli YqhD/NADPH
Protocol: as §1, §2, §3

[4] = substrate: O=C(O)C(=O)CCO; experiment: OHB decarboxylase / pyruvate decarboxylase kinetics, Zm-Pdc G413N; format: biochemical, Zymomonas mobilis; details: other: 37° C., pH 7, coupled to E. coli YqhD/NADPH
Protocol: as §1, §2, §3

[5] = substrate: CC(C)CC(=O)C(=O)O; experiment: OHB decarboxylase / branched-chain alpha-ketoacid decarboxylase kinetics, Ll-KdcA wild type; format: biochemical, Lactococcus lactis B1157-NIZO; details: other: 37° C., pH 7, coupled to horse liver alcohol dehydrogenase/NADH
From the text: (§4) The branched-chain alpha-ketoacid decarboxylase encoding gene Ll-kdcA from L. lactis B1157-NIZO was codon-optimized for expression in E. coli. […] The resulting pET28-Ll-kdcA plasmid was shown by DNA sequencing to have the correct sequence.
(§5) The plasmids were used to transform E. coli BL21 (DE3) star cells and the enzymes carrying an N-terminal hexa-His tag were expressed and purified as described in Example 1. Decarboxylase activity on 2-oxo-4-hydroxybutyrate (OHB), pyruvate (Sigma), and 4-methyl-2-oxovaleric acid (Sigma) was quantified.
as §1

[6] = substrate: O=C(O)C(=O)CCO; experiment: as above; format: biochemical, Lactococcus lactis B1157-NIZO; details: other: 37° C., pH 7, coupled to E. coli YqhD/NADPH
From the text: as §4, §5, §1

[7] = substrate: CC(C)CC(=O)C(=O)O; experiment: OHB decarboxylase / MOV decarboxylase kinetics, Ll-KdcA G402S; format: biochemical, Lactococcus lactis; details: other: 37° C., pH 7, coupled to horse liver alcohol dehydrogenase/NADH
Protocol: as §1, §2, §3

[8] = substrate: O=C(O)C(=O)CCO; experiment: as above; format: biochemical, Lactococcus lactis; details: other: 37° C., pH 7, coupled to E. coli YqhD/NADPH
Protocol: as §1, §2, §3

[9] = substrate: CC(C)CC(=O)C(=O)O; experiment: OHB decarboxylase / MOV decarboxylase kinetics, Ll-KdcA V461I; format: biochemical, Lactococcus lactis; details: other: 37° C., pH 7, coupled to horse liver alcohol dehydrogenase/NADH
Protocol: as §1, §2, §3

[10] = substrate: O=C(O)C(=O)CCO; experiment: as above; format: biochemical, Lactococcus lactis; details: other: 37° C., pH 7, coupled to E. coli YqhD/NADPH
Protocol: as §1, §2, §3

B1: Zymomonas mobilis pyruvate decarboxylase Zm-Pdc variant W392L, SEQ ID No. 192 (Zymomonas mobilis subsp. mobilis ZM4 = ATCC 31821; W392L) (protein)
chain: MSYTVGTYLAERLVQIGLKHHFAVAGDYNLVLLDNLLLNKNMEQVYCCNELNCGFSAEGYARAKGAAAAVVTYSVGALSAFDAIGGAYAENLPVILISGAPNNNDHAAGHVLHHALGKTDYHYQLEMAKNITAAAEAIYTPEEAPAKIDHVIKTALREKKPVYLEIACNIASMPCAAPGPASALFNDEASDEASLNAAVEETLKFIANRDKVAVLVGSKLRAAGAEEAAVKFADALGGAVATMAAAKSFFPEENPHYIGTSWGEVSYPGVEKTMKEADAVIALAPVFNDYSTTGWTDIPDPKKLVLAEPRSVVVNGIRFPSVHLKDYLTRLAQKVSKKTGALDFFKSLNAGELKKAAPADPSAPLVNAEIARQVEALLTPNTTVIAETGDSLFNAQRMKLPNGARVEYEMQWGHIGWSVPAAFGYAVGAPERRNILMVGDGSFQLTAQEVAQMVRLKLPVIIFLINNYGYTIEVMIHDGPYNNIKNWDYAGLMEVFNGNGGYDSGAGKGLKAKTGGELAEAIKVALANTDGPTLIECFIGREDCTEELVKWGKRVAAANSRKPVNKLL
Work on B1 yielded a Km [1] of 3700 µM.

B2: Zymomonas mobilis pyruvate decarboxylase Zm-Pdc variant W392Q, SEQ ID No. 190 (Zymomonas mobilis subsp. mobilis ZM4 = ATCC 31821; W392Q) (protein)
chain: MSYTVGTYLAERLVQIGLKHHFAVAGDYNLVLLDNLLLNKNMEQVYCCNELNCGFSAEGYARAKGAAAAVVTYSVGALSAFDAIGGAYAENLPVILISGAPNNNDHAAGHVLHHALGKTDYHYQLEMAKNITAAAEAIYTPEEAPAKIDHVIKTALREKKPVYLEIACNIASMPCAAPGPASALFNDEASDEASLNAAVEETLKFIANRDKVAVLVGSKLRAAGAEEAAVKFADALGGAVATMAAAKSFFPEENPHYIGTSWGEVSYPGVEKTMKEADAVIALAPVFNDYSTTGWTDIPDPKKLVLAEPRSVVVNGIRFPSVHLKDYLTRLAQKVSKKTGALDFFKSLNAGELKKAAPADPSAPLVNAEIARQVEALLTPNTTVIAETGDSQFNAQRMKLPNGARVEYEMQWGHIGWSVPAAFGYAVGAPERRNILMVGDGSFQLTAQEVAQMVRLKLPVIIFLINNYGYTIEVMIHDGPYNNIKNWDYAGLMEVFNGNGGYDSGAGKGLKAKTGGELAEAIKVALANTDGPTLIECFIGREDCTEELVKWGKRVAAANSRKPVNKLL
B2 showed a Km [2] of 9200 µM and a Km [3] of 2900 µM.

B3: Zymomonas mobilis pyruvate decarboxylase Zm-Pdc variant G413N, SEQ ID No. 194 (Zymomonas mobilis subsp. mobilis ZM4 = ATCC 31821; G413N) (protein)
chain: MSYTVGTYLAERLVQIGLKHHFAVAGDYNLVLLDNLLLNKNMEQVYCCNELNCGFSAEGYARAKGAAAAVVTYSVGALSAFDAIGGAYAENLPVILISGAPNNNDHAAGHVLHHALGKTDYHYQLEMAKNITAAAEAIYTPEEAPAKIDHVIKTALREKKPVYLEIACNIASMPCAAPGPASALFNDEASDEASLNAAVEETLKFIANRDKVAVLVGSKLRAAGAEEAAVKFADALGGAVATMAAAKSFFPEENPHYIGTSWGEVSYPGVEKTMKEADAVIALAPVFNDYSTTGWTDIPDPKKLVLAEPRSVVVNGIRFPSVHLKDYLTRLAQKVSKKTGALDFFKSLNAGELKKAAPADPSAPLVNAEIARQVEALLTPNTTVIAETGDSWFNAQRMKLPNGARVEYEMQWNHIGWSVPAAFGYAVGAPERRNILMVGDGSFQLTAQEVAQMVRLKLPVIIFLINNYGYTIEVMIHDGPYNNIKNWDYAGLMEVFNGNGGYDSGAGKGLKAKTGGELAEAIKVALANTDGPTLIECFIGREDCTEELVKWGKRVAAANSRKPVNKLL
B3 gave a Km [4] of 1400 µM.

B4: Lactococcus lactis branched-chain alpha-ketoacid decarboxylase Ll-KdcA, wild type, SEQ ID No. 130 (Lactococcus lactis) (protein)
chain: MYTVGDYLLDRLHELGIEEIFGVPGDYNLQFLDQIISREDMKWIGNANELNASYMADGYARTKKAAAFLTTFGVGELSAINGLAGSYAENLPVVEIVGSPTSKVQNDGKFVHHTLADGDFKHFMKMHEPVTAARTLLTAENATYEIDRVLSQLLKERKPVYINLPVDVAAAKAEKPALSLEKESSTTNTTEQVILSKIEESLKNAQKPVVIAGHEVISFGLEKTVTQFVSETKLPITTLNFGKSAVDESLPSFLGIYNGKLSEISLKNFVESADFILMLGVKLTDSSTGAFTHHLDENKMISLNIDEGIIFNKVVEDFDFRAVVSSLSELKGIEYEGQYIDKQYEEFIPSSAPLSQDRLWQAVESLTQSNETIVAEQGTSFFGASTIFLKSNSRFIGQPLWGSIGYTFPAALGSQIADKESRHLLFIGDGSLQLTVQELGLSIREKLNPICFIINNDGYTVEREIHGPTQSYNDIPMWNYSKLPETFGATEDRVVSKIVRTENEFVSVMKEAQADVNRMYWIELVLEKEDAPKLLKKMGKLFAEQNK
Work on B4 yielded a Km [5] of 150 µM and a Km [6] of 4000 µM.

B5: Lactococcus lactis branched chain 2-oxoacid decarboxylase Ll-KdcA variant G402S, SEQ ID No. 196 (Lactococcus lactis; G402S) (protein)
chain: MYTVGDYLLDRLHELGIEEIFGVPGDYNLQFLDQIISREDMKWIGNANELNASYMADGYARTKKAAAFLTTFGVGELSAINGLAGSYAENLPVVEIVGSPTSKVQNDGKFVHHTLADGDFKHFMKMHEPVTAARTLLTAENATYEIDRVLSQLLKERKPVYINLPVDVAAAKAEKPALSLEKESSTTNTTEQVILSKIEESLKNAQKPVVIAGHEVISFGLEKTVTQFVSETKLPITTLNFGKSAVDESLPSFLGIYNGKLSEISLKNFVESADFILMLGVKLTDSSTGAFTHHLDENKMISLNIDEGIIFNKVVEDFDFRAVVSSLSELKGIEYEGQYIDKQYEEFIPSSAPLSQDRLWQAVESLTQSNETIVAEQGTSFFGASTIFLKSNSRFIGQPLWSSIGYTFPAALGSQIADKESRHLLFIGDGSLQLTVQELGLSIREKLNPICFIINNDGYTVEREIHGPTQSYNDIPMWNYSKLPETFGATEDRVVSKIVRTENEFVSVMKEAQADVNRMYWIELVLEKEDAPKLLKKMGKLFAEQNK
Work on B5 yielded a Km [7] of 1500 µM and a Km [8] of 1500 µM.

B6: Lactococcus lactis branched chain 2-oxoacid decarboxylase Ll-KdcA variant V461I, SEQ ID No. 198 (Lactococcus lactis; V461I) (protein)
chain: MYTVGDYLLDRLHELGIEEIFGVPGDYNLQFLDQIISREDMKWIGNANELNASYMADGYARTKKAAAFLTTFGVGELSAINGLAGSYAENLPVVEIVGSPTSKVQNDGKFVHHTLADGDFKHFMKMHEPVTAARTLLTAENATYEIDRVLSQLLKERKPVYINLPVDVAAAKAEKPALSLEKESSTTNTTEQVILSKIEESLKNAQKPVVIAGHEVISFGLEKTVTQFVSETKLPITTLNFGKSAVDESLPSFLGIYNGKLSEISLKNFVESADFILMLGVKLTDSSTGAFTHHLDENKMISLNIDEGIIFNKVVEDFDFRAVVSSLSELKGIEYEGQYIDKQYEEFIPSSAPLSQDRLWQAVESLTQSNETIVAEQGTSFFGASTIFLKSNSRFIGQPLWGSIGYTFPAALGSQIADKESRHLLFIGDGSLQLTVQELGLSIREKLNPICFIINNDGYTIEREIHGPTQSYNDIPMWNYSKLPETFGATEDRVVSKIVRTENEFVSVMKEAQADVNRMYWIELVLEKEDAPKLLKKMGKLFAEQNK
Work on B6 yielded a Km [9] of 150 µM and a Km [10] of 2800 µM.
